Measurements published in patent US20180371086A1 (Gilead, published 2018).

What was measured:
[1] = molecular target: HIV-1 Env of virus MGRM-AG-007 (HIV-1); experiment: cell-based or functional assay
[2] = molecular target: HIV-1 Env of virus MGRM-AG-001 (HIV-1); experiment: cell-based or functional assay
[3] = molecular target: HIV-1 Env of virus MGRM-D-011 (HIV-1); experiment: cell-based or functional assay
[4] = molecular target: HIV-1 Env of virus MGRM-D-001 (HIV-1); experiment: cell-based or functional assay
[5] = molecular target: HIV-1 Env of virus MGRM-F1-010 (HIV-1); experiment: cell-based or functional assay
[6] = molecular target: HIV-1 Env of virus MGRM-F1-018 (HIV-1); experiment: cell-based or functional assay
[7] = molecular target: HIV-1 Env of virus MGRM-F1-020 (HIV-1); experiment: cell-based or functional assay
[8] = molecular target: HIV-1 Env of virus MGRM-F1-016 (HIV-1); experiment: cell-based or functional assay
[9] = molecular target: HIV-1 Env of virus MGRM-F1-004 (HIV-1); experiment: cell-based or functional assay
[10] = molecular target: HIV-1 Env of virus MGRM-F1-006 (HIV-1); experiment: cell-based or functional assay
[11] = molecular target: HIV-1 Env of virus MGRM-F1-015 (HIV-1); experiment: cell-based or functional assay
[12] = molecular target: HIV-1 Env of virus MGRM-G-001 (HIV-1); experiment: cell-based or functional assay
[13] = molecular target: HIV-1 Env of virus MGRM-G-017 (HIV-1); experiment: cell-based or functional assay
[14] = molecular target: HIV-1 Env of virus MGRM-G-004 (HIV-1); experiment: cell-based or functional assay
[15] = molecular target: HIV-1 Env of virus MGRM-G-013 (HIV-1); experiment: cell-based or functional assay
[16] = molecular target: HIV-1 Env of virus MGRM-Acute-B-005 (HIV-1); experiment: cell-based or functional assay
[17] = molecular target: HIV-1 Env of virus MGRM-Chronic-B-020 (HIV-1); experiment: cell-based or functional assay
[18] = molecular target: HIV-1 Env of virus MGRM-Chronic-B-010 (HIV-1); experiment: cell-based or functional assay
[19] = molecular target: HIV-1 Env of virus MGRM-Chronic-B-003 (HIV-1); experiment: cell-based or functional assay
[20] = molecular target: HIV-1 Env of virus MGRM-Chronic-B-009 (HIV-1); experiment: cell-based or functional assay
[21] = molecular target: HIV-1 Env of virus MGRM-Chronic-B-016 (HIV-1); experiment: cell-based or functional assay
[22] = molecular target: HIV-1 Env of virus MGRM-Acute-B-001 (HIV-1); experiment: cell-based or functional assay
[23] = molecular target: HIV-1 Env of virus MGRM-Chronic-B-012 (HIV-1); experiment: cell-based or functional assay
[24] = molecular target: HIV-1 Env of virus MGRM-Chronic-B-005 (HIV-1); experiment: cell-based or functional assay
[25] = molecular target: HIV-1 Env of virus MGRM-Chronic-B-001 (HIV-1); experiment: cell-based or functional assay
[26] = molecular target: HIV-1 Env of virus MGRM-C-026 (HIV-1); experiment: cell-based or functional assay
[27] = molecular target: HIV-1 Env of virus MGRM-C-006 (HIV-1); experiment: cell-based or functional assay
[28] = molecular target: HIV-1 Env of virus MGRM-C-027 (HIV-1); experiment: cell-based or functional assay
[29] = molecular target: HIV-1 Env of virus MGRM-C-022 (HIV-1); experiment: cell-based or functional assay
[30] = molecular target: HIV-1 Env of virus MGRM-C-004 (HIV-1); experiment: cell-based or functional assay
[31] = molecular target: HIV-1 Env of virus MGRM-C-005 (HIV-1); experiment: cell-based or functional assay
[32] = molecular target: HIV-1 Env of virus MGRM-C-002 (HIV-1); experiment: cell-based or functional assay
[33] = molecular target: HIV-1 Env of virus MGRM-C-016 (HIV-1); experiment: cell-based or functional assay
[34] = molecular target: HIV-1 Env of virus MGRM-C-024 (HIV-1); experiment: cell-based or functional assay
[35] = molecular target: HIV-1 Env of virus MGRM-C-028 (HIV-1); experiment: cell-based or functional assay
[36] = molecular target: HIV-1 Env of virus MGRM-C-020 (HIV-1); experiment: cell-based or functional assay
[37] = molecular target: HIV-1 Env of virus MGRM-A-014 (HIV-1); experiment: cell-based or functional assay
[38] = molecular target: HIV-1 Env of virus MGRM-A-012 (HIV-1); experiment: cell-based or functional assay
[39] = molecular target: HIV-1 Env of virus MGRM-A-010 (HIV-1); experiment: cell-based or functional assay
[40] = molecular target: HIV-1 Env of virus MGRM-AG-006 (HIV-1); experiment: cell-based or functional assay
[41] = molecular target: HIV-1 Env (gp120) of virus 7467 (HIV-1); experiment: cell-based or functional assay
[42] = molecular target: T1, Human FcRn (human, UniProt P55899 24-297; P61769 21-119); experiment: ELISA, FcRn coated on plate, pH 6.0
T1 construct: also called neonatal Fc receptor
T1 sequence (P55899 24-297 limits assumed, chain 1 of 2): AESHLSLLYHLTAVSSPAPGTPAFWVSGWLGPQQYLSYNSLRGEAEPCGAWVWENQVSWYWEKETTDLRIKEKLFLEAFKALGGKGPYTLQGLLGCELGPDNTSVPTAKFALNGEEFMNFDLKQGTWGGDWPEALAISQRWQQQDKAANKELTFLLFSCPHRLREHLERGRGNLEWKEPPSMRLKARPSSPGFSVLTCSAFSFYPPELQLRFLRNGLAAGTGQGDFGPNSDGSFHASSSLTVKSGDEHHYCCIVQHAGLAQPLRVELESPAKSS
T1 sequence (P61769 21-119 limits assumed, chain 2 of 2): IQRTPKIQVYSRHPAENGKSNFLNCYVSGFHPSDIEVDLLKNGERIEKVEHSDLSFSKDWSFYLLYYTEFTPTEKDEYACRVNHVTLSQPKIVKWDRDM
Procedure: The binding of antibodies to FcRn of various antibody variants at different pHs was determined. A 96-well Maxisorp plate was coated with 100 ul of 5 μg/ml FcRn. The plate was incubated overnight at 4° C., and then blocked with 4% skim milk for 2 hr at room temperature after washing 3 times with 0.05% Tween 20 washing buffer. […] The plate was then washed 3 times and 100 μL of Fab-anti-human Fab-HRP or Goat anti-human IgG-HRP secondary antibody diluted in 4% skimmed milk was added. Plates were then incubated 50 min at room temperature, washed three times, and 100 μL fresh TMB substrate was added. Plates were developed for 3 minutes on bench with gentle shaking. Plate was quenched with 100 μL 1M HCl, shaken briefly, read at A450 on a spectramax m5 plate reader.

B1: PGT121.60 hIgG1/hLambda (antibody)
heavy: QMQLQESGPGLVKPSETLSLTCSVSGASISDSYWSWIRRSPGKGLEWIGYVHKSGDTNYNPSLKSRVHLSLDTSKNQVSLSLTGVTAADSGKYYCARTLHGRRIYGIVAFNEWFTYFYMDVWGTGTQVTVSSASTKGPSVFPLAPSSKSTSGGTAALGCLVKDYFPEPVTVSWNSGALTSGVHTFPAVLQSSGLYSLSSVVTVPSSSLGTQTYICNVNHKPSNTKVDKKVEPKSCDKTHTCPPCPAPELLAGPDVFLFPPKPKDTLMISRTPEVTCVVVDVSHEDPEVKFNWYVDGVEVHNAKTKPREEQYNSTYRVVSVLTVLHQDWLNGKEYKCKVSNKALPLPEEKTISKAKGQPREPQVYTLPPSREEMTKNQVSLTCLVKGFYPSDIAVEWESNGQPENNYKTTPPVLDSDGSFFLYSKLTVDKSRWQQGNVFSCSVLHEALHSHYTQKSLSLSPGK
light: not shown
PGT121.60 IC50 [1]: 0.108 µg/mL | PGT121.60 IC50 [2]: 1.44 µg/mL | PGT121.60 IC50 [3]: 0.0043 µg/mL | PGT121.60 IC50 [4]: 0.431 µg/mL | PGT121.60 IC50 [5]: 0.0125 µg/mL | PGT121.60 IC50 [6]: 0.0201 µg/mL | PGT121.60 IC50 [7]: 0.041 µg/mL | PGT121.60 IC50 [8]: 0.522 µg/mL | PGT121.60 IC50 [9]: 0.547 µg/mL | PGT121.60 IC50 [10]: 2.33 µg/mL | PGT121.60 IC50 [11]: 11.6 µg/mL | PGT121.60 IC50 [12]: 0.005 µg/mL | PGT121.60 IC50 [13]: 0.0255 µg/mL | PGT121.60 IC50 [14]: 0.046 µg/mL | PGT121.60 IC50 [15]: 1.5 µg/mL | PGT121.60 IC50 [16]: 0.0014 µg/mL | PGT121.60 IC50 [17]: 0.0018 µg/mL | PGT121.60 IC50 [18]: 0.0074 µg/mL | PGT121.60 IC50 [19]: 0.0079 µg/mL | PGT121.60 IC50 [20]: 0.0112 µg/mL | PGT121.60 IC50 [21]: 0.0283 µg/mL | PGT121.60 IC50 [22]: 0.0313 µg/mL | PGT121.60 IC50 [23]: 0.0409 µg/mL | PGT121.60 IC50 [24]: 0.072 µg/mL | PGT121.60 IC50 [25]: 0.0985 µg/mL | PGT121.60 IC50 [26]: 0.0004 µg/mL | PGT121.60 IC50 [27]: 0.003 µg/mL | PGT121.60 IC50 [28]: 0.0038 µg/mL | PGT121.60 IC50 [29]: 0.0038 µg/mL | PGT121.60 IC50 [30]: 0.0064 µg/mL | PGT121.60 IC50 [31]: 0.0078 µg/mL | PGT121.60 IC50 [32]: 0.0095 µg/mL | PGT121.60 IC50 [33]: 0.0137 µg/mL | PGT121.60 IC50 [34]: 0.0826 µg/mL | PGT121.60 IC50 [35]: 0.744 µg/mL | PGT121.60 IC50 [36]: 14.9 µg/mL | PGT121.60 IC50 [37]: 0.001 µg/mL | PGT121.60 IC50 [38]: 0.0397 µg/mL | PGT121.60 IC50 [39]: 0.745 µg/mL | PGT121.60 IC50 [40]: 0.0106 µg/mL | EC50 (µg/mL), killing of HIV-infected cells (Mean) [41]: 0.139 µg/mL | Emax, killing of HIV-infected cells (Mean) [41]: 54% | EC50 [42]: 0.22 nM
